Measured values as given in publication PMC11066147.
“And” between values parts separate entries of the source, which are not always exact repeats. Equal values may be shown once.

B1: PfHop (natural protein)
chain: MVNKEEAQRLKELGNKCFQEGKYEEAVKYFSDAITNDPLDHVLYSNLSGAFASLGRFYEALESANKCISIKKDWPKGYIRKGCAEHGLRQLSNAEKTYLEGLKIDPNNKSLQDALSKVRNENMLENAQLIAHLNNIIENDPQLKSYKEENSNYPHELLNTIKSINSNPMNIRIILSTCHPKISEGVEKFFGFKFTGEGNDAEERQRQQREEEERRKKKEEEERKKKEEEEMKKQNRTPEQIQGDEHKLKGNEFYKQKKFDEALKEYEEAIQINPNDIMYHYNKAAVHIEMKNYDKAVETCLYAIENRYNFKAEFIQVAKLYNRLAISYINMKKYDLAIEAYRKSLVEDNNRATRNALKELERRKEKEEKEAYIDPDKAEEHKNKGNEYFKNNDFPNAKKEYDEAIRRNPNDAKLYSNRAAALTKLIEYPSALEDVMKAIELDPTFVKAYSRKGNLHFFMKDYYKALQAYNKGLELDPNNKECLEGYQRCAFKIDEMSKSEKVDEEQFKKSMADPEIQQIISDPQFQIILQKLNENPNSISEYIKDPKIFNGLQKLIAAGILKVR
B2: Plasmodium falciparum Hsp110 (PfHsp70-z, PF3D7_0708800) (natural protein)
chain: MSVLGIDIGNDNSVVATINKGAINVVRNDISERLTPTLVGFTEKERLIGDSALSKLKSNYKNTCRNIKNLIGKIGTDVKDDIEIHEAYGDLIPCEYNYLGYEVEYKNEKVVFSAVRVLSALLSHLIKMAEKYIGKECKEIVLSYPPTFTNCQKECLLAATKIINANVLRIISDNTAVALDYGMYRMKEFKEDNGSLLVFVNIGYANTCVCVARFFSNKCEILCDIADSNLGGRNLDNELIKYITNIFVNNYKMNPLYKNNTPELCPMGTGRLNKFLVTSTASDQQNGINNKVRIKLQEVAIKTKKVLSANNEASIHVECLYEDLDCQGSINRETFEELCSNFFLTKLKHLLDTALCISKVNIQDIHSIEVLGGSTRVPFIQNFLQQYFQKPLSKTLIADESIARGCVLSAAMVSKHYKVKEYECVEKVTHPINVEWHNINDASKSNVEKLYTRDSLKKKVKKIVIPEKGHIKLTAYYENTPDLPSNCIKELGSCIVKINEKNDKIVESHVMTTFSNYDTFTFLGAQTVTKSVIKSKDEKKKADDKTEDKGEKKDAKDQEQNDDKDQTNDNNMNEKDTNDKKEKNNETNSPNKTELKKGEEGKVQTCYTTIPIETLLAQGSYSSKDIFNFSEQEINMQHSDILEGERLKHLNELETIIYESRSRLNGIYKNFVMDDERDRILLSLDDYENWLYDNIEENKNMFIKKKEEIRDLIKNIVQKFDVYNSKQQNLGNIINHLNNIITQCSNKPSDESQNIINRTTKFLNNINSLQEQEKNKPLYEPPVYTLNDIEAEFNEVTQLAQKFFSKLEVEELAKQKAKQEKEKEKEKEKEKEKEKEKNEETNLDANEEQNNEAKNNEEKENSTKNENSANPEE

Experiments:
[1] = target: PfHsp70-1LS (linker switch mutant of PfHsp70-1 carrying the linker of PfHsp70-z) (Plasmodium falciparum) (UniProt Q8IB24); assay: SPR
[2] = target: PfHsp70-zLS (linker switch mutant of PfHsp70-z carrying the linker of canonical Hsp70) (Plasmodium falciparum) (UniProt Q8IC01); assay: SPR

Row | Binder | Kd [1] | Kd [2] | koff [2] | kon [2]
1 | B1 | 27.7 nM and 10 nM and 37.6 nM |  |  | 
2 | B2 |  | 3.17 nM and 2.79 nM and 1.84 nM | 4.15e-05 s⁻¹ and 4.36e-05 s⁻¹ and 5.32e-05 s⁻¹ | 13100 M⁻¹ s⁻¹ and 23700 M⁻¹ s⁻¹ and 19100 M⁻¹ s⁻¹
